# Measured values: patent US20250243277A1 (AVACTA LIFE SCIENCES, published 2025)
# Molecular target: T1, human PD-L1-Fc (R&D Systems) (human, UniProt Q9NZQ7 19-239)
# T1 construct: Bought from R&D Systems; Biotinylated in-house for the phage selection; also called huPD-L1-Fc; human PD-L1-Fc antigen; not shown: Fc part of the bought fusion
# Assay: soluble Affimer ELISA
# T1 sequence (Q9NZQ7 19-239 limits assumed): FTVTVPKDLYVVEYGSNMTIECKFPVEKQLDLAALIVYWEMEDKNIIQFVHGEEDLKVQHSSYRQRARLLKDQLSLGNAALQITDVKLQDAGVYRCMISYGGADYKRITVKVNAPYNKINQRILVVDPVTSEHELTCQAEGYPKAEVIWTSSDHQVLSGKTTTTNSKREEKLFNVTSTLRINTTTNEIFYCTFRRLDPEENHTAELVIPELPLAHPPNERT
row,binding result,Binder
1,binds,"Clone 144 (designed binder, His-tagged) MIPGGLSEAKPATPEIQEIVDKVKPQLEEKTGETYGKLEAVQYKTQVVAYQSPPYHFGTNYYIKVRAGDNKYMHLKVFKSLRQIAGYIAIEDLVLTGYQVDKNKDDELTGF"
2,binds,"Clone 133 (designed binder, His-tagged) MIPGGLSEAKPATPEIQEIVDKVKPQLEEKTGETYGKLEAVQYKTQVVLYSESRDYKGTNYYIKVRAGDNKYMHLKVFKSLHAYKGSIYREDLVLTGYQVDKNKDDELTGF"
3,binds,"Clone 136 (designed binder, His-tagged) MIPGGLSEAKPATPEIQEIVDKVKPQLEEKTGETYGKLEAVQYKTQVVVLRWQWGYLGTNYYIKVRAGDNKYMHLKVFKSLQLLYEDNDEDLVLTGYQVDKNKDDELTGF"
4,binds,"Clone 125 (designed binder, His-tagged) MIPGGLSEAKPATPEIQEIVDKVKPQLEEKTGETYGKLEAVQYKTQVVTRLHFPQYQGTNYYIKVRAGDNKYMHLKVFKSLEIEVNPYANEDLVLTGYQVDKNKDDELTGF"
5,binds,"Clone 143 (designed binder, His-tagged) MIPGGLSEAKPATPEIQEIVDKVKPQLEEKTGETYGKLEAVQYKTQVVDWPSHAKFWGTNYYIKVRAGDNKYMHLKVFKSLFLPDKDDPFEDLVLTGYQVDKNKDDELTGF"
6,binds,"Clone 135 (designed binder, His-tagged) MIPGGLSEAKPATPEIQEIVDKVKPQLEEKTGETYGKLEAVQYKTQVVAVYPTFKYGTNYYIKVRAGDNKYMHLKVFKSLKVEYLDFITEDLVLTGYQVDKNKDDELTGF"
7,binds,"Clone 139 (designed binder, His-tagged) MIPGGLSEAKPATPEIQEIVDKVKPQLEEKTGETYGKLEAVQYKTQVVGLIQPPYAQGTNYYIKVRAGDNKYMHLKVFKSLGWQYIDLFHEDLVLTGYQVDKNKDDELTGF"
8,binds,"Clone 141 (designed binder, His-tagged) MIPGGLSEAKPATPEIQEIVDKVKPQLEEKTGETYGKLEAVQYKTQVVDLHTLKSGVGTNYYIKVRAGDNKYMHLKVFKSLYIKHHLWWIEDLVLTGYQVDKNKDDELTGF"
9,binds,"Clone 120 (designed binder, His-tagged) MIPGGLSEAKPATPEIQEIVDKVKPQLEEKTGETYGKLEAVQYKTQVDPEVSITRWQGTNYYIKVRAGDNKYMHLKVFKSLYETHGNIITEDLVLTGYQVDKNKDDELTGF"
10,binds,"Clone 138 (designed binder, His-tagged) MIPGGLSEAKPATPEIQEIVDKVKPQLEEKTGETYGKLEAVQYKTQVVDNVRHGWLSGTNYYIKVRAGDNKYMHLKVFKSLFALLWSAYGEDLVLTGYQVDKNKDDELTGF"
11,binds,"Clone 128 (designed binder, His-tagged) MIPGGLSEAKPATPEIQEIVDKVKPQLEEKTGETYGKLEAVQYKTQVVPEVDKAEWWGTNYYIKVRAGDNKYMHLKVFKSLIRYGLRHEREDLVLTGYQVDKNKDDELTGF"
12,binds,"Clone 123 (designed binder, His-tagged) MIPGGLSEAKPATPEIQEIVDKVKPQLEEKTGETYGKLEAVQYKTQVDNLVYYQRDWGTNYYIKVRAGDNKYMHLKVFKSLEPGRWRWPKEDLVLTGYQVDKNKDDELTGF"
13,binds,"Clone 29 (designed binder, His-tagged) MIPGGLSEAKPATPEIQEIVDKVKPQLEEKTGETYGKLEAVQYKTQVVFTFVDIHWYGTNYYIKVRAGDNKYMHLKVFKSLRKPKDRQYTEDLVLTGYQVDKNKDDELTGF"
14,binds,"Clone 162 (designed binder, His-tagged) MIPGGLSEAKPATPEIQEIVDKVKPQLEEKTGETYGKLEAVQYKTQVVFTFSSIGWWGTNYYIKVRAGDNKYMHLKVFKSLRQLLDKPRYEDLVLTGYQVDKNKDDELTGF"
15,binds,"Clone 176 (designed binder, His-tagged) MIPGGLSEAKPATPEIQEIVDKVKPQLEEKTGETYGKLEAVQYKTQVVFWYPEIGWLGTNYYIKVRAGDNKYMHLKVFKSLRSRYPNYTAEDLVLTGYQVDKNKDDELTGF"
16,binds,"Clone 137 (designed binder, His-tagged) MIPGGLSEAKPATPEIQEIVDKVKPQLEEKTGETYGKLEAVQYKTQVVLWPLQPKNWGTNYYIKVRAGDNKYMHLKVFKSLGWNYLEAIAEDLVLTGYQVDKNKDDELTGF"

# Further lines, the binder ahead of its results:
row,Binder,binding result
1,"Clone 14 (designed binder, His-tagged) MIPGGLSEAKPATPEIQEIVDKVKPQLEEKTGETYGKLEAVQYKTQVVSFLVDPLHLGTNYYIKVRAGDNKYMHLKVFKSLRSFGGEWGWEDLVLTGYQVDKNKDDELTGF",binds
2,"Clone 124 (designed binder, His-tagged) MIPGGLSEAKPATPEIQEIVDKVKPQLEEKTGETYGKLEAVQYKTQVDQVLWEIFEHGTNYYIKVRAGDNKYMHLKVFKSLFHQWSPALHEDLVLTGYQVDKNKDDELTGF",binds
3,"Clone 142 (designed binder, His-tagged) MIPGGLSEAKPATPEIQEIVDKVKPQLEEKTGETYGKLEAVQYKTQVVSWYKLWSYSGTNYYIKVRAGDNKYMHLKVFKSLFEGRHKDPEEDLVLTGYQVDKNKDDELTGF",binds
4,"Clone 127 (designed binder, His-tagged) MIPGGLSEAKPATPEIQEIVDKVKPQLEEKTGETYGKLEAVQYKTQVVTQAIPWREWGTNYYIKVRAGDNKYMHLKVFKSLIPEWPKDASEDLVLTGYQVDKNKDDELTGF",binds
5,"Clone 121 (designed binder, His-tagged) MIPGGLSEAKPATPEIQEIVDKVKPQLEEKTGETYGKLEAVQYKTQVDGNFAHERWQGTNYYIKVRAGDNKYMHLKVFKSLYIARDFDWTEDLVLTGYQVDKNKDDELTGF",binds
6,"Clone 131 (designed binder, His-tagged) MIPGGLSEAKPATPEIQEIVDKVKPQLEEKTGETYGKLEAVQYKTQVVNQWEWPVDLGTNYYIKVRAGDNKYMHLKVFKSLKVYRTHHIFEDLVLTGYQVDKNKDDELTGF",binds
7,"Clone 13 (designed binder, His-tagged) MIPGGLSEAKPATPEIQEIVDKVKPQLEEKTGETYGKLEAVQYKTQVVLFREEKYNYGTNYYIKVRAGDNKYMHLKVFKSLAWGEVVSNAEDLVLTGYQVDKNKDDELTGF",binds
8,"Clone 130 (designed binder, His-tagged) MIPGGLSEAKPATPEIQEIVDKVKPQLEEKTGETYGKLEAVQYKTQVVPQPEWNEWGVTNYYIKVRAGDNKYMHLKVFKSLIFWNEKLIREDLVLTGYQVDKNKDDELTGF",binds
9,"Clone 16 (designed binder, His-tagged) MIPGGLSEAKPATPEIQEIVDKVKPQLEEKTGETYGKLEAVQYKTQVVHIQWPPWVEGTNYYIKVRAGDNKYMHLKVFKSLGWTSDNSNFEDLVLTGYQVDKNKDDELTGF",binds
10,"Clone 154 (designed binder, His-tagged) MIPGGLSEAKPATPEIQEIVDKVKPQLEEKTGETYGKLEAVQYKTQVVPQIGAPYVKGTNYYIKVRAGDNKYMHLKVFKSLGWNSNIGVLEDLVLTGYQVDKNKDDELTGF",binds
11,"Clone 219 (designed binder, His-tagged) MIPGGLSEAKPATPEIQEIVDKVKPQLEEKTGETYGKLEAVQYKTQVVPLTIPPFVEGTNYYIKVRAGDNKYMHLKVFKSLGWQQVNDVKEDLVLTGYQVDKNKDDELTGF",binds
12,"Clone 240 (designed binder, His-tagged) MIPGGLSEAKPATPEIQEIVDKVKPQLEEKTGETYGKLEAVQYKTQVVLLYQAPFVQGTNYYIKVRAGDNKYMHLKVFKSLGWDLEYSQKEDLVLTGYQVDKNKDDELTGF",binds
13,"Clone 161 (designed binder, His-tagged) MIPGGLSEAKPATPEIQEIVDKVKPQLEEKTGETYGKLEAVQYKTQVVVLERPPYVKGTNYYIKVRAGDNKYMHLKVFKSLNWEGEPSGVEDLVLTGYQVDKNKDDELTGF",binds
14,"Clone 19 (designed binder, His-tagged) MIPGGLSEAKPATPEIQEIVDKVKPQLEEKTGETYGKLEAVQYKTQVVYRFGPPYVKGTNYYIKVRAGDNKYMHLKVFKSLGWNAFSSPAEDLVLTGYQVDKNKDDELTGF",binds
15,"Clone 132 (designed binder, His-tagged) MIPGGLSEAKPATPEIQEIVDKVKPQLEEKTGETYGKLEAVQYKTQVVERYHFPQFTGTNYYIKVRAGDNKYMHLKVFKSLNHDQVRWNLEDLVLTGYQVDKNKDDELTGF",binds
16,"Clone 126 (designed binder, His-tagged) MIPGGLSEAKPATPEIQEIVDKVKPQLEEKTGETYGKLEAVQYKTQVVYEPHHPYPWGTNYYIKVRAGDNKYMHLKVFKSLQYHPPYERFEDLVLTGYQVDKNKDDELTGF",binds
17,"Clone 140 (designed binder, His-tagged) MIPGGLSEAKPATPEIQEIVDKVKPQLEEKTGETYGKLEAVQYKTQVVRQVGVWAYEGTNYYIKVRAGDNKYMHLKVFKSLGRTVEGGRWEDLVLTGYQVDKNKDDELTGF",binds
18,"Clone 174 (designed binder, His-tagged) MIPGGLSEAKPATPEIQEIVDKVKPQLEEKTGETYGKLEAVQYKTQVVRQVTIWHFEGTNYYIKVRAGDNKYMHLKVFKSLGRTEVEGSFEDLVLTGYQVDKNKDDELTGF",binds
19,"Clone 134 (designed binder, His-tagged) MIPGGLSEAKPATPEIQEIVDKVKPQLEEKTGETYGKLEAVQYKTQVVFWFEDIQWLGTNYYIKVRAGDNKYMHLKVFKSLRFREDVDIREDLVLTGYQVDKNKDDELTGF",binds
